Biological target: Spef1 K204Q/K206Q/R207Q/R215Q/R218Q mutant (full-length) (mouse) (UniProt Q99JL1)
Test: SEC-MALS

Spef1 K204Q/K206Q/R207Q/R215Q/R218Q mutant (full-length) (from UniProt Q99JL1 1-234) (natural protein)
stoichiometry N: 2

Reference: publication doi:10.1101/2025.07.31.667833
